Assay [1] relates to adult male rats bilaterally exposed to noise. The assay is described as follows: Noise-induced cochlear synaptopathy, ABR and wave I amplitude after delayed intratympanic injection (Example L). It counts as in vivo, rat. The following applies: for ABR threshold shift: ABR at day 28, FIG. 21; for wave I amplitudes: day 28, FIG. 22. The protocol: (§1) Animals: Male Sprague-Dawley rats (5-6 months of age) were used for efficacy studies and females (2-3 months) were used for pharmacokinetic studies.
Formulations: Human recombinant BDNF was suspended in the thermoreversible polymer Poloxamer 407 (16%) to reach a BDNF concentration of 0.005%.
(§2) Intratympanic (IT) injection: Formulations were administered under anesthesia as a single IT injection (20 μl) through the tympanic membrane into the middle ear, targeting the round window membrane (RWM).
Noise-induced cochlear synaptopathy: Rats received a single acoustic trauma (105 dB SPL, 8-16 kHz, 1 h) under anesthesia. […] Auditory function (ABR and ABR wave 1 amplitude) was monitored at day 28. At termination (Day 28), cochleae were collected and assessed for evidence of cochlear synaptopathy (IHC synaptic puncta counts).
Intratympanic BDNF Injected 1, 3, or 7 Days After Acoustic Trauma improves Auditory Brainstem Response (ABR) thresholds and wave I amplitudes in adult rats. The Auditory Brainstem Response (ABR) is an objective test that measures hearing sensitivity and can identify abnormalities in the peripheral auditory system and the auditory pathway up through the brainstem. Adult male rats were bilaterally exposed to noise followed by an intratympanic injection of 0.005% BDNF in P407 1 day, 3 days, 7 days, or 14 days after noise exposure. ABR recordings were obtained at day 28.
The ABR Wave I amplitude is an indicator of the strength of the distal cochlear nerve signal, i.e., the response of the spiral ganglion neurons/synapses.

Assay [2] has the same test system. The assay is described as follows: Noise-induced cochlear synaptopathy, ABR and wave I amplitude at various BDNF concentrations (Example K). It counts as in vivo, rat. As to conditions: at all three BDNF concentrations (0.005%, 0.05%, 0.5% BDNF in P407), vs P407 vehicle alone. The protocol:
as §1
Formulations: Human recombinant BDNF was suspended in the thermoreversible polymer Poloxamer 407 (16%) to reach a range of BDNF concentrations (0.005%, 0.05%, and 0.5% by weight).
as §2
Noise-induced cochlear synaptopathy: Rats received a single acoustic trauma (105 dB SPL, 8-16 kHz, 1 h) under anesthesia. 24 hours later (Day 1) animals received a single bilateral IT injection of the treatment regimens. Auditory function (ABR and ABR wave 1 amplitude) was monitored at day 1 and then every 7 days for 28 days, as illustrated in FIG. 16. At termination (Day 28), cochleae were collected and assessed for evidence of cochlear synaptopathy (IHC synaptic puncta counts).
Intratympanic BDNF improves Auditory Brainstem Response (ABR) thresholds and wave I amplitudes in adult rats. The Auditory Brainstem Response (ABR) is an objective test that measures hearing sensitivity and can identify abnormalities in the peripheral auditory system and the auditory pathway up through the brainstem. […]

Setting [3] is: 0.005% BDNF in P407 injected 1, 3, or 7 days after noise exposure.
The mark [4] stands for this setting: 0.005% BDNF in P407 injected 14 days after noise exposure.

B1: brain-derived neurotrophic factor (protein, UniProt P23560 129-247, looked up)
Neurotrophic factor BDNF: HSDPARRGELSVCDSISEWVTAADKKTAVDMSGGTVTVLEKVPVSKGQLKQYFYETKCNPMGYTKEGCRGIDKRHWNSQCRTTQSYVRALTMDSKKRIGWRFIRIDTSCVCTLTIKRGR
modifications: Neurotrophic factor BDNF in 16% poloxamer 407 gel
notes: Human recombinant BDNF
Consider B1, for which the ABR threshold shift entry in assay [1] (setting [3]) is “more rapid recovery of initial threshold shifts and overall reduced levels of hearing loss”; in assay [1] (setting [4]) it was “did not showed a more rapid recovery of initial threshold shifts and overall reduced levels of hearing loss”; in assay [2] (intratympanic injection 24 hours after noise exposure, FIG. 17), “more rapid recovery of initial threshold shifts and overall reduced levels of hearing loss”. The “wave I amplitudes” value in assay [1] (setting [3]) was “significant improvements”; in assay [1] (setting [4]) it was “did not show significant improvements”; in assay [2] (FIG. 18), “significant improvements”.

For the origin of these results see patent publication US20230122991A1, “GROWTH FACTOR FORMULATION FOR CONDITION ASSOCIATED WITH OTIC EVENT” (OTONOMY, INC., priority 2020, published 2023).
